± gives the uncertainty stated by the source.

Sequences and labels used below:
B1: POU domain, class 5, transcription factor 1, residues 134 to 212; numbered along this chain, Q01860 (parent)
chain: EESQDIKALQKELEQFAKLLKQKRITLGYTQADVGLTLGVLFGKVFSQTTICRFEALQLSFKNMCKLRPLLQKWVEEAD

This series covers variants of B1. In words: abundance fitness (aPCA) (normalised: wild type 0, dead -1); higher = more abundant; growth selection in yeast, the domain comes from the species named. The following applies: Homo sapiens.
For P69W, the abundance fitness was -0.999 ± 0.29.
With P69F the figure was -0.473 ± 0.3.
The same measure for P69L: -0.351 ± 0.13; for P69R: -0.613 ± 0.13; for P69N: -0.008 ± 0.27.
The same measure for P69A: -0.252 ± 0.12; for K7D: 0.061 ± 0.098.
With K7Y, the abundance fitness is -0.12 ± 0.14.
Regarding K7G, the abundance fitness was -0.193 ± 0.055.
The same measure for K7E: -0.025 ± 0.075; for K7N: -0.022 ± 0.14.
The same measure for K7T: -0.162 ± 0.1; for K7Q: -0.142 ± 0.1; for K7A: -0.007 ± 0.062.
With K7H the figure was -0.193 ± 0.15; with K7V, -0.085 ± 0.065; with G43C, -0.485 ± 0.41.
As to G43A, the abundance fitness is -0.282 ± 0.3.
The same measure for G43V: -0.585 ± 0.23.
The same measure for Q22A: -0.151 ± 0.3; for Q22R: -0.092 ± 0.2; for Q22H: 0.027 ± 0.29.
With M64W the figure was -0.667 ± 0.22; with M64N, -0.608 ± 0.23.
In the case of M64E, the abundance fitness is -0.763 ± 0.23.
For M64L, the abundance fitness was -0.333 ± 0.11.
With M64K, the abundance fitness is -0.279 ± 0.13.
The same measure for L19E: -0.447 ± 0.32; for L19W: -0.181 ± 0.16.
The same measure for E77Q: 0.184 ± 0.12; for E77T: -0.129 ± 0.19; for E77H: 0.144 ± 0.35.
As to E77D, the abundance fitness is -0.107 ± 0.16.
The same measure for E77N: 0.718 ± 0.33.
For E77V, the abundance fitness is -0.161 ± 0.12.
With E77M the figure was 0.037 ± 0.17.
For T26G, the abundance fitness is 0.071 ± 0.12.
As to T26C, the abundance fitness was -0.059 ± 0.46.
With T26E the figure was 0.04 ± 0.27.
The same measure for T26I: -0.313 ± 0.48; for T26V: -0.212 ± 0.19; for K73G: -0.386 ± 0.1.
K73Y: the abundance fitness was -0.595 ± 0.37.
With K73A the figure was -0.131 ± 0.092; with K73S, -0.659 ± 0.18; with K73W, -0.474 ± 0.14.
With K73E the figure was -0.595 ± 0.17; with D5T, -0.141 ± 0.4.
With D5A the figure was -0.126 ± 0.21.
As to S3F, the abundance fitness was -0.082 ± 0.27.
With Q4I, the abundance fitness was -0.309 ± 0.24.
The same measure for Q4C: -0.211 ± 0.22; for Q4F: -0.059 ± 0.24; for Q4Y: 0.291 ± 0.19.
With Q4V the figure was -0.061 ± 0.088.
The same measure for Q4H: -0.051 ± 0.4; for Q4T: 0.005 ± 0.11; for Q4D: 0.046 ± 0.14.
Regarding Q4E, the abundance fitness was -0.13 ± 0.1.
The same measure for G35T: -0.697 ± 0.42.
With G35A the figure was 0.266 ± 0.092.
The same measure for G35R: -0.32 ± 0.17; for G35S: 0.134 ± 0.14.
With V40H, the abundance fitness came to 0.12 ± 0.28.
With V40N the figure was 0.028 ± 0.28; with V40Y, -0.237 ± 0.35; with V40M, -0.087 ± 0.13.
For the variant L38C, the abundance fitness was -0.029 ± 0.25.
The same measure for L38A: -0.275 ± 0.14.
With L38W the figure was -0.214 ± 0.26; with L38T, -0.035 ± 0.23.
The same measure for L38V: -0.52 ± 0.14; for L38Q: -0.482 ± 0.36; for A32K: 0.232 ± 0.2.
With A32L, the abundance fitness is -0.749 ± 0.27.
On to A32V, for which the abundance fitness is -0.785 ± 0.31.
The same measure for A32H: -0.487 ± 0.41; for L13S: -0.743 ± 0.25.
With L13C the figure was -0.806 ± 0.31.
With L13G the figure was -0.708 ± 0.23.
On to L13W, for which the abundance fitness is -0.58 ± 0.19.
For L13M, the abundance fitness worked out at 0.021 ± 0.17.
With L13R the figure was -1.06 ± 0.35; with I25E, -0.207 ± 0.38; with I25R, -0.078 ± 0.24.
For I25V, the abundance fitness was 0.264 ± 0.16.
The same measure for R24Q: -0.391 ± 0.44; for Q58D: -0.03 ± 0.19; for Q58W: -0.179 ± 0.34.
With Q58S the figure was -0.307 ± 0.17; with Q58A, -0.5 ± 0.21.
The same measure for E55Q: -0.498 ± 0.38; for E55M: -0.907 ± 0.39.
As for E55S, the abundance fitness is -0.418 ± 0.27.
With E55I the figure was -0.365 ± 0.33; with L57H, 0.298 ± 0.2; with L57V, -0.066 ± 0.13.
Consider L57S, for which the abundance fitness was -0.306 ± 0.16.
The same measure for L57Q: 0.106 ± 0.2; for L57M: 0.152 ± 0.16; for L57R: -0.234 ± 0.098.
The same measure for L57W: -0.355 ± 0.17.
With Q10I the figure was -0.373 ± 0.34.
On to Q10W, for which the abundance fitness was determined as 0.305 ± 0.084.
With Q10R the figure was 0.137 ± 0.063; with Q10C, -0.477 ± 0.29; with Q10A, -0.169 ± 0.12.
The same measure for Q10Y: 0.042 ± 0.33.
With Q10N the figure was -0.086 ± 0.24.
Regarding E76G, the abundance fitness is -0.644 ± 0.18.
The same measure for E76C: -0.066 ± 0.19.
With E76R the figure was -0.315 ± 0.095; with E76F, -0.155 ± 0.27; with E76S, -0.188 ± 0.15.
The same measure for N63W: -0.832 ± 0.39; for N63S: 0.299 ± 0.11.
For N63C, the abundance fitness was -0.31 ± 0.24.
With N63Y the figure was -0.387 ± 0.5; with N63Q, -0.236 ± 0.24.
The same measure for N63L: -0.336 ± 0.2; for N63D: -0.093 ± 0.24.
The same measure for N63E: 0.126 ± 0.14; for N63T: -0.303 ± 0.22; for K66A: -0.011 ± 0.097.
K66R: the abundance fitness is -0.01 ± 0.093.
The same measure for Q48E: 0.484 ± 0.14; for T37F: 0.319 ± 0.23.
Turning to T37G, the abundance fitness stood at 0.296 ± 0.06.
The same measure for T37Y: -0.193 ± 0.38; for T37R: 0.339 ± 0.054.
In the case of T37E, the abundance fitness amounted to 0.681 ± 0.076.
For the variant T37M, the abundance fitness was found to be 0.116 ± 0.12.
With T50W the figure was -0.43 ± 0.22; with T50C, -0.298 ± 0.31.
In the case of T50S, the abundance fitness was -0.542 ± 0.2.
The same measure for T50R: -0.756 ± 0.19; for T50A: -0.316 ± 0.15.
The same measure for D33E: -0.081 ± 0.13; for D33W: -0.563 ± 0.23; for D33A: -0.594 ± 0.19.
With A78T the figure was -0.014 ± 0.26; with A78M, -0.033 ± 0.14.
Turning to A78R, the abundance fitness was -0.289 ± 0.13.
The same measure for A78I: 0.292 ± 0.24; for C52S: 0.341 ± 0.2.
The same measure for C52M: 0.451 ± 0.26.
The same measure for F46K: -0.17 ± 0.3; for F46E: -0.293 ± 0.15.
For the variant F46P, the abundance fitness worked out at 0.029 ± 0.15.
With F46R the figure was -0.429 ± 0.14; with F46S, -0.553 ± 0.28; with S60E, -0.173 ± 0.15.
The same measure for S60D: 0.197 ± 0.15; for S60L: -0.265 ± 0.21.
On to S60R, for which the abundance fitness is -0.556 ± 0.14.
The same measure for S60I: -0.284 ± 0.5; for I51T: -0.338 ± 0.28; for I51V: -0.48 ± 0.27.
The same measure for F61M: 0.04 ± 0.11; for F61C: -0.441 ± 0.31; for F61N: -0.275 ± 0.29.
With F61T the figure was 0.063 ± 0.17.
Regarding F61G, the abundance fitness is -0.466 ± 0.092.
With F61I the figure was 0.132 ± 0.24; with F61E, -0.8 ± 0.21.
For F61R, the abundance fitness was -0.422 ± 0.1.
The same measure for F61K: -0.206 ± 0.16.

The values are drawn from the Human Domainome abundance scans (Beltran et al. 2025).
